Measurements as given in patent US6471960B1, “Methods for the prevention or treatment of alzheimer's disease” (Rutgers, the State University, priority 1994, dated 2002).
Blank lines part the entries; values can stand above or below the compound they belong to.

Assays:
tPA [1] = target: T1, tPA (Homo sapiens, UniProt P00750); assay: Binding of active site 125I-labeled tPA to amyloid fibrils or fibrin; details: for t-PA binding relative to wt β1-28 and fibrin controls: fibrils of Charged→Gln β(1-28) variants; for effect on tPA binding to amyloid fibrils: ε-aminocaproic acid at 0.1 M (100 mM)
T1 sequence (P00750 36-562): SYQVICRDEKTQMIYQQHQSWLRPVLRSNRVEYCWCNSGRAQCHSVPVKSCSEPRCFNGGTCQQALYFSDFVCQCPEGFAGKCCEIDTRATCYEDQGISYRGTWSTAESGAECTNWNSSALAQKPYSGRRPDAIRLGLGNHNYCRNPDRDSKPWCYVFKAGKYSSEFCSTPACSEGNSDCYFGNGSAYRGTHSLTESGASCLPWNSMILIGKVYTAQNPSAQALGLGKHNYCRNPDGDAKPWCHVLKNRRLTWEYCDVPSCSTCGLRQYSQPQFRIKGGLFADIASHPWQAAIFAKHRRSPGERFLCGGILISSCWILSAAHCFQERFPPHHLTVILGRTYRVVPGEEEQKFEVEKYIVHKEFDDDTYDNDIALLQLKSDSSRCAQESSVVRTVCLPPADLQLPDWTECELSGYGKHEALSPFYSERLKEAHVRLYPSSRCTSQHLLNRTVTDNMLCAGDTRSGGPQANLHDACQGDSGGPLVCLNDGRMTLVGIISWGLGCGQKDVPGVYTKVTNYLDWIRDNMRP
Description: In this study, D-Tyr-Pro-Arg-chloromethyl ketone (Bachem Bioscience) was radioiodinated by the chloramine-T method and subsequently used to irreversibly bind to the active site of tPA. (Keyt, et al, Anal. Biochem. 206:73-83 (1992)). 1 mCi of I^125 was mixed with YPRck in 1 M Tris-HCL, 0.01% Tween 20 at pH 7.5. To initiate iodination 10 μl of 1 mg/ml Chloramine-T was added. After 1 minute, 20 μl of 1 mg/ml sodium metabisulfite was added to reduce the Chloramine-T and iodide. 15 μl of 1 mg/ml tPA was then added, and the mixture was incubated at room temperature for 1 hour to allow the YPRck to bind to the tPA. Radiolabeled tPA was purified from free iodine and unreacted YPRck using a PD-10 column preequilibrated with PBS and 0.003% Tween 20. The labeled protein was stored at −20° C.
(§1) Synthetic Amyloid Fibril Formation—β1-28 (Chiron Mimotopes Peptide Systems) and β1-40 (Bachem Bioscience) peptides were dissolved in water. Aggregation solution conditions were 1×PBS, 1 mg/ml β-peptide and the pH was adjusted to the theoretical pI of the peptides (5.6 for β1-28 and 4.9 for β1-40). Solutions were kept at room temperature.
Binding of Active Site-labeled tPA to Amyloid Fibrils or to Fibrin—tPA binding was determined by a modification of the method of Higgins and Vehar, Biochem. 26:7786-7791 (1987)).
To confirm that the labeled tPA's protein binding surface was not altered by the radioiodination, it was bound to fibrin by substituting fibrinogen for the fibrils. Fibrin clot formation was initiated by adding 0.4 units/ml (final human thrombin. The remainder of the assay proceeded as above.
Ihibition of kringle-dependent labeled tPA Binding to Amyloid Fibrils and Fibrin Using ε-aminocaproic acid to the binding solutions were set up on the same manner as previously noted except that ε-aminocaproic acid at 0.1 M was included in the conditions.
Previous studies of the interaction of human tissue plasminogen activator with the amyloid β peptide employed a functional plasminogen activation assay (Kingston, I. B. et al., Nature Medicine 1:138-142 (1995); Castro, M. J. M., et al., Analyt. Biochem. 226:225-231 (1995)). However, to understand this interaction more fully, a sensitive and quantitative assay for measuring direct amyloid β peptide binding by t-PA and other fibrin(ogen)-binding proteins (e. g., plasmin) was employed in the present invention. For this purposed a specific probe molecule, D-Tyr-Pro-Arg chloromethyl ketone (YPACK), was radioiodinated with ^125I then reacted with t-PA, plasmin, and thrombin to effect covalent active site modification of their respective protease domains (Keyt, B. A. et al., Analyt. Biochem. 206:73-83 (1992)). Binding of ^125I-YPACK-modified t-PA to fibrin and amyloid β peptide fibrils was carried out by a modification of the method of Higgins, D. L. et al. (Fibrinolysis 6:161-166 (1992)). Incubations of t-PA (0.5 nM) with fibrin or fibrils (100 μg/ml) were in 1X phosphate buffered saline, 0.01% Tween-80, 0.5% bovine serum albumin, pH 7.4, for 60 min. at 37° C. In some instances, ε-amino caproic add (ε-ACA) was also present at a concentration of 100 mM.

[2] = target: tissue plasminogen activator (Homo sapiens, UniProt P00750); assay: Plasminogen activation stimulation assay (H-D-valyl-L-leucyl-L-lysine-p-nitroanilide), Example 3; assay type: biochemical; details: stimulators at 56 μg/ml
Chain of tissue plasminogen activator (P00750 23-562 limits assumed): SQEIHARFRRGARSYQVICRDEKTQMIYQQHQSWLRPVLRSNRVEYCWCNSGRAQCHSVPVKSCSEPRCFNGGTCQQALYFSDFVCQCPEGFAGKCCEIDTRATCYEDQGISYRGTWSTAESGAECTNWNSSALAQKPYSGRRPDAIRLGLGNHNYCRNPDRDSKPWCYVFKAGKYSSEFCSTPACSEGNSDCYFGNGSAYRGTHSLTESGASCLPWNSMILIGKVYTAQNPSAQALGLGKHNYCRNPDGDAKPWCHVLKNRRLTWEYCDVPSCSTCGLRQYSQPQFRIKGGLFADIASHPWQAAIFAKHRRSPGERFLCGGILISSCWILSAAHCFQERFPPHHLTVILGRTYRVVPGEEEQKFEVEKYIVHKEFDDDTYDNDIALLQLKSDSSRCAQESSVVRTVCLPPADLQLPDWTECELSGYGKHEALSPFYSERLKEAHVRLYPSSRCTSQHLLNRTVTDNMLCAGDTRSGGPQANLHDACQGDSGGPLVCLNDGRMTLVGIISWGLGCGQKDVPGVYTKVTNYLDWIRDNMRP
Description: To further investigate this relationship, the ability of amyloid β peptide fibrils to stimulate tissue plasminogen activator was studied. For this purpose, plasminogen activation assays were carried out as described by Bennett, W. F. et al., J. Biol. Chem. 266:5191-5201 (1991)). Plasmin generation was monitored by measuring the absorbance change at 405 nm produced by hydrolysis of the substrate, H-D-valyl-L-leucyl-L-lysine-p-nitroanilide. Stimulators tested were present in the assay at a concentration of 56 μg/ml. The apparent first-order rate constants of plasminogen activation t-PA were measured for various stimulators. Rate constants were determined as described by Castro, M. J. M., et al., Analyt. Biochem. 226:225-231 (1995)) using fresh or aged amyloid β peptide fibrils or control proteins.
The twelve β1-28 peptide analogs were used for plasminogen activation and direct binding assays with the fibrinogen-binding proteins t-PA, plasmin, and thrombin, specifically labeled at their respective protease domain active sites as described above. For five of the peptide variants R5Q, […], D23Q, and K28Q, t-PA binding was reduced relative to its binding to both wt β1-28 and fibrin controls, implying that the t-PA binding “footprint” on the fibrils was rather large. […]

[3] = Fibril formation (electron microscopy, light scattering); assay type: physicochemical; details: pH adjusted to theoretical pI
Description: Fibril formation was accomplished by taking the peptides up in water. 10×calcium and magnesium free phosphate buffered saline (“PBS”) was added to give a 1×PBS solution (2.7 mM KCl, 1.2 mM KH2PO4, 138 mM NaCl, 8.1 mM Na2HPO4). Fibril formation was obtained by adjusting the pH to the theoretical pI of the β-amyloid peptides. The theoretical pI of β-amyloid peptide 1-42 was 4.9; the theoretical pI of β-amyloid peptide 1-28 was 5.6; the theoretical pI of β-amyloid peptide 1-28 (Dutch) was 6.2. The final concentration of peptide was 1 mg/ml. […] Fibrils were observed immediately or within no more than two days at room temperature. Small aliquots of suspended aggregated peptides were absorbed onto carbon-coated copper grids and stained with 2% (w/v) uranyl acetate. Samples were examined in a JEOL 1200EX electron microscope.
as §1, with “temperature. Fibril formation was confirmed by light scattering and transmission electron microscopy.” for “temperature.”
It had been possible that some of the charged→glutamine peptide variants might not form fibrils. […]

tPA [4] = target: T1, tPA; assay: Plasminogen activation by t-PA, initial velocities under steady state conditions (S-2251, Lineweaver-Burk); assay type: biochemical; set-up: purchased Genentech, Inc. Activase; details: unaggregated peptides

t-PA binding relative to wt β1-28 and fibrin controls (tPA [1]): reduced
Compound: DAEFRHDSGYEVHHQKLVFFAEDVGSNQ [K28Q]
stimulation of t-PA-mediated plasminogen activation [2]: profoundly decreased levels of stimulation

effect on tPA binding to amyloid fibrils (tPA [1]): capable of competing out amyloid binding
effect on tPA binding to amyloid fibrils (tPA [1]; listed as ε-amino caproic acid): partially blocked
Compound: NCCCCCC(=O)O [ε-aminocaproic acid, reference compound]

Compound: Corticotropin Releasing Factor: control peptide, 41 amino acids
fibril formation [3]: did not form fibrils

Compound: Growth Hormone Releasing Factor: control peptide, 29 amino acids
fibril formation [3]: did not form fibrils

Kd of t-PA binding to fibrils (tPA [1]; 125I-YPACK-modified t-PA): sub-nanomolar range
% tPA Bound (tPA [1]; about 0.5 nM labeled tPA, 0.1 mg/ml fibrils or fibrin, 1 hour): 62%
tPA binding to amyloid fibrils (qualitative) (tPA [1]; radiolabeled tPA, tPA:fibrin binding as control): binds
Compound: β 1-40 Amyloid Fibrils: synthetic β1-40 amyloid peptide (Bachem Bioscience), aggregated to fibrils

stimulation of t-PA-mediated plasminogen activation [2]: enhanced stimulation
Compound: DAEFRHDSGYEVHHQQLVFFAEDVGSNK [K16Q]

Compound: Fibrinogen
Km (tPA [4]; Km of t-PA for plasminogen with the stimulator present): 3.3 µM
kcat (tPA [4]; kcat of t-PA with the stimulator present): 0.051 s⁻¹

t-PA binding relative to wt β1-28 and fibrin controls (tPA [1]): reduced
Compound: DAEFRHDSGYEVHHQKLVFFAEQVGSNK [D23Q]

t-PA binding relative to wt β1-28 and fibrin controls (tPA [1]): reduced
Compound: DAEFQHDSGYEVHHQKLVFFAEDVGSNK [R5Q]
